The nature of the data set: soluble on expression in E. coli; label from the status in PepcDB or PDB records.
In the case of “MSLVRNMTIASELGYLHVPEGVLIDLKKVDSLRDDEIVLMCTGSQGEPMAALSRMANGDHKVQVGHGDTVILASSLIPGNENAVFRIINGLTRLGARVVHGGNAKVHVSGHASAGELLYCYNVLKPKNVMPVHGEVRHLVANGALAVRTGVPADRVVLAEDGVVVDLVDGRASVVGAVPCGYVYVDGSSVGEITDAELKDRRILGEEGFVSVFAVVDSATGKVLAGPQILARGFAEDDKVFQDIQPEVVKALEDAIAGGATDTHQLQQVMRRVIGRWVSNRLRRRPMIVPVVVEAEGHHHHHH”, the “soluble on expression in E. coli” value was “soluble”.
With “MAHHHHHHMEWVPCTEQTGSVGCREGHCATSLQEKSTGEEWVLVVGGYCEGERDGAVMAARADGLPMLRWVRLDKPNMTWFECDGASLTHVTGDTAYFFGGLNEHMNHSNQLLCLSLHQGQQGDLSLDVVKVETTGDVPLPRARHSAGSAGRYFVVFGGETEDAEQNNDGYILDTDTMVWTRIPTGHQVPNPRLLAGPLVFYSPHGCILYGGAHFVNGDIRSMSDVWNLHIPLGGTWFNVSYGDGAPACRFPRSNGHAGGVLGRVGGETVVVFVGGKDAAEGCDRVKQVQPPKSAEDKFHLRLVDPVLAGGEGPHWRYTPAAVDTRRGVLLLGGQCRHPQEVAAFLLKQTGVTLQR” the entry was “not soluble”; with “MLPTILALLLAPLATALPPTIIRSPKVTGWGWWSEMESCPPGYFAHGMRIKYERDSGSLDETGLNAIELACKNRAVPSSGDTYIKGAEGVFGGWQAYQYCPQGEYVIGFALQSESWRGGNKDDVAANNFAAYCGRPEAPRRRYSWIQGSVNERGSWTRDQFCPARQIVCGIIVQIEPAQAPHVDDASLDSVGLKCCDF”, “not soluble”; with “MGSRENLYFQGLEHHHHHHHMKIISKMLVGALALAVTNVYAAELMTKAEFEKVESQYEKIGDISTSNEMSTADAKEDLIKKADEKGADVLVLTSGQTDNKIHGTANIYKKK”, “soluble”.
Next, “MKIRLLVSILCILFAGCALQQTNRALQPDQRWVTQTLPNGLTYHLYPDSEQEVSIRLYVHAGSMQETAQQAGYAHFIEHMAFNGTRHYQHNDVIRMFEQSGAQFGADFNALTGYDRTVYQLDLPNAQNIDKALLWFADIADGLAFDADEVEKEKGVILGEFRASRTENMSLEQQFYLHQIQGTSYADRDPLGSRELVQAATPDSLKAFYQQWYQPQLAELVITGNFTLEQGQQWVENYFSSWKKGSTEKPASIYHQALNNQDLVAPVTAGESPSLTLIFPQGSAAIKDYASQQEFWRDDVGEQLLHTRLVAAFNDAAQAITGIYATHYEIEGQRYTLISVGFAAEQREKVQALLLETLASMRDYGVTKNELDIILRGYREHLTFLQEDREAITPASHANQKVYSIVFDTPIQATLDYQASLSEFIASATPEMINRHIQQQLSQNPVWVVGVAATEDAQALNKALPQWRNDLAQPGNQPIDQQIDSPFTQQFTAGEVVKQLDINDDPQVTYWQLDNGIDVYYLRNIEAKDRVFVQYASSGGQFALPADLLPAAEIATAVQTRSGLDTLNGSQFDRYLRQKDIGFYSYIASTSHGFEANSKAQELPELLEILHLLSTQVKVSPDQLNSVKTEFTQNRSAYFDSPIGAFFRTVTNQSFIETSPYRIRTPEQIAQVTAQQIEQVHQRLFSEGRNNTLVIVGDIERSQITPMLRQYVASIPLSKGTLSPMTSQLIKPVAPRLELALNNENSTQYSLRLISETQPRTAKTVFIDDMLQRIATQRLLAEVREHQGLDYTPQVIPYVVDGDILNDWVLSALVDPKSEPQVAKVMHEVARELAQGVTQQELDVVKQKFLIDMKPLNKSPEQQAYFMLRYAIHHYGVETIYKVEELTKSITLDDINQRAQTLFGKDTMSQELIMTPKANPKG”: “not soluble”.
Next, “MSKVAMVTGGAQGIGRGISEKLAADGFDIAVADLPQQEEQAAETIKLIEAADQKAVFVGLDVTDKANFDSAIDEAAEKLGGFDVLVNNAGIAQIKPLLEVTEEDLKQIYSVNVFSVFFGIQAASRKFDELGVKGKIINAASIAAIQGFPILSAYSTTKFAVRGLTQAAAQELAPKGHTVNAYAPGIVGTGMWEQIDAELSKINGKPIGENFKEYSSSIALGRPSVPEDVAGLVSFLASENSNYVTGQVMLVDGGMLYN”: “soluble”; “MAKRVADAQIQRETYDSNESDDDVTPSTKVASSAVMNRRKIAMPKRRMAFK”: “soluble”; “MTMHETTDRLFEIAKEQGVLKPADIAERLNISQQALKNWESRGIAAKALPEVAKAFGVSETWLRTGEGSRTAPVLIDPDLPHEVKDIHRPMTWSSNDPLPDDDYVFVPYLKESCFKGGVGTYEIPDYNGYRLPFGKSTLKRKGINPDNVFCCTLTGDSMEEKIAEDAAIAVDTGETAIRDGKIYAFAQDGMFRVKYLIRQPGNSVLIRSHNSGFYGDENAPLDSLTVIGRVFWWSVLD”: “not soluble”.
As to “MGSDKIHHHHHHMSGKPAARVTDPTTCPVPGHGSNPIVQGSPDVVFDGLPAARQGDASACGSPMISAVSSTVLINGLPAVTLGSIGAHGNVVIGGSGTVLIGDVFTPAPRAPALPLNRNSVPCSGRFQLIDHETGKPVAGRRVRVWSSGGWNAFDTTDADGMTSWIERPTAEILYIDLVQRCDA”, the “soluble on expression in E. coli” value was “not soluble”.
Next, “MGSDKIHHHHHHMKKIQIVDDSQSNIRKLENLLNTHFLVTVARTGEEAVRMAKENVPDLILLEVALPDMDGFETCRRLKAQVESAKIPVIFVSSLKEKEAVIKGFEVGGQDYIIKPFEARELVLRMKSLLKQESSRKRLEQHVKVLEEQNEKLKGKIQKVDRLSRVDFLTNLMNRRDMQEKIRAEINRSIRHGRSFTLAIVDIDFFKNINDTYGHDCGDHVLKHFVSTLKNSVRSSDYVSRWGGEEFLLLFPETKLEEGKRACEKIRQKINESPVIYKGMSISITATFGISEYRPSVRIEELIKAADDALYKGKKTGKNQVVVQSM”: “not soluble”; “SGSCCSCPDKDTVPDNHRNKFKVINVDDDGNELGSGIMELTDTELILYTRKRDSVKWHYLCLRRYGYDSNLFSFESGRRCQTGQGIFAFKCARAEELFNMLQEIMQNNSINVVEEPVVERNNHQTELEVPRTPRTPTTPGFAAQNLPNGYPRYPSFGDASSHPSSRHPSVGSARLPSVGEESTHPLLVAEEQVHTYVNTTGVQEERKNRTSVHVPLEARVSNAESSTPKEEPSSIEDRDPQILLEPEGVKFVLGPTPVQKQLMEKEKLEQLGRDQVSGSGANNTEWDTGYDSDERRDAPSVNKLVYENINGLSIPSASGVRRGRLTSTSTSDTQNINNSAQRRTALLNYENLPSLPPVWEARKLSRDEDDNLGPKTPSLNGYHNNLDPMHNYVNTENVTVPASAHKIEYSRRRDCTPTVFNFDIRRPSLEHRQLNYIQVDLEGGSDSDNPQTPKTPTTPLPQTPTRRTELYAVIDIERTAAMSNLQKALPRDDGTSRKTRHNSTDLPMLAWK”: “soluble”; “MGSDKIHHHHHHMIDSIRVEGFRGLKELELSSLRRINVIVGRNNSGKSTLLEALSLFLGSSDPGTFGNVLHEILIWRGWYGIQTVDDLFYNGGDSFSISSTGKTLEALNSKHSLEFKLNGEPFYKIDRESIRRLASQAVLLARFSPKENFEFLTPLTFRRFGYAESLYSYAYERKVVKDSIKVLNEAYPEVEGFSPLLKEDNWVLYVETKYGVYPYYLMGEGFKSAMIISFLSSLLRDGVLLIDSAEAFHHPKSLKVMIQTLVRGSEKNNVQVFLTTHSLELLDLMLEMGRDGFVIYMKNVEGRIEVESIEFQRASELRESIGVDLRGF”: “not soluble”.
With “MMNTSDNHALGDFLRARRQRLDPATFGFPAGRRRTPGLRREEVAQLASISPTWYTWLEQGRGGAPSREVLERIARGLRLTTPEREHLFILAFGHPPQTRLTVTDDMTPRLQRVLDAFTIPAIIRTASWDVIAWNAPAARVLTDYSQLPLAERNVLRRLFTRPEARCTLEDWQRVGQLIVNAFRADVTRMGATKETDQLIAELSQQSVEFARFWQSHDVAGHGEGYKRINHPEMGPLDLEFTSFAVEGRPDLSLLVFNPATTESQRKIHGLLQGAGSAPEES” the entry was “soluble”.

The values are drawn from the DeepSol protein solubility set.
